According to US20150203577A1 (Chugai, published 2015):

T1: mouse FcγRII extracellular domain with C-terminal His tag (mouse, UniProt P08101 30-210)
T1 construct: Made on the basis of NCBI NP-034317.1; also called mFcγRII; mFcgRII
T1 sequence: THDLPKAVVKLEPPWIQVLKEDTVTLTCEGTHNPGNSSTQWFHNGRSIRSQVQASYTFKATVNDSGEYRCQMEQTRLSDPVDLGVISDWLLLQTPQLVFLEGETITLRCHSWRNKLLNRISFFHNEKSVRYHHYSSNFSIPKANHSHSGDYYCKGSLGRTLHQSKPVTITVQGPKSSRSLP

T2: mouse FcγRIII extracellular domain with C-terminal His tag (mouse, UniProt P08508 31-215)
T2 construct: Made on the basis of NCBI NP-034318.2; also called mFcγRIII; mFcgRIII
T2 chain: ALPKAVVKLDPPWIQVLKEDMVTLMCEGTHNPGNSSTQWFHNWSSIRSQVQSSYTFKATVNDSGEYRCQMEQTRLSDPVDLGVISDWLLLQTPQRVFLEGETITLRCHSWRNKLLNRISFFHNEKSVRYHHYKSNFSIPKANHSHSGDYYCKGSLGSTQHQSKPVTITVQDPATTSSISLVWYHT


Columns and labels:
[1] = target: T1, mouse FcγRII extracellular domain with …; experiment: SPR Biacore T200; KD mFcγRIII / KD mFcγRII
Protocol: (§1) Each altered antibody was analyzed for its interaction with each Fcγ receptor prepared above using Biacore T100 (GE Healthcare Japan Corp.), Biacore T200 (GE Healthcare Japan Corp.), Biacore A100, or Biacore 4000. The running buffer used was HBS-EP+ (GE Healthcare Japan Corp.). The assay temperature was set to 25° C. The sensor chips used were chips prepared by immobilizing Protein L (ACTIGEN or BioVision) onto Series S Sensor Chip CM5 (GE Healthcare Japan Corp.) or Series S Sensor Chip CM4 (GE Healthcare Japan Corp.) by the amine coupling method.
(§2) In order to calculate the KD value of each altered antibody for FcγR, kinetic analysis was conducted according to the following method: first, the antibody of interest was captured onto any of these chips and allowed to interact with mFcγR diluted with a running buffer. For the obtained sensorgram, the assay results were globally fit into the 1:1 Langmuir binding model using Biacore Evaluation Software to calculate an association rate constant ka (L/mol/s) and a dissociation rate constant kd (1/s). From these values, the dissociation constant KD (mol/L) was calculated.

[2] = target: T2, mouse FcγRIII extracellular domain with …; experiment: SPR Biacore T200
Protocol: as §1, §2

[3] = target: T1, mouse FcγRII extracellular domain with …; experiment: SPR Biacore T200
Protocol: as §1, §2

| Binder | relative I/A (mFcγRII selectivity) (mIgG1 = 1) [1] | relative mFcγRIII-binding activity (mIgG1 = 1) [2] | relative mFcγRII-binding activity (mIgG1 = 1) [3] |
| --- | --- | --- | --- |
| H237-MB310/MRAL-k0 (antibody, mouse IgG1, kappa, copies: 2 + 2) heavy: QVQLQESGPGLVKPSETLSLTCAVSGHSISHDHAWSWVRQPPGEGLEWIGFISYSGITNYNPSLQGRVTISRDNSKNTLYLQMNSLRAEDTAVYYCARSLARTTAMDYWGEGTLVTVSSAKTTPPSVYPLAPGSAAQTNSMVTLGCLVKGYFPEPVTVTWNSGSLSSGVHTFPAVLQSDLYTLSSSVTVPSSTWPSETVTCNVAHPASSTKVDKKIVPRDCGCKPCICTDPEVEDVFIFPPKPKDVLTITLTPKVTCVVVDISKDDPEVQFSWFVDDVEVHTAQTQPREEQFNSTFRSVSELPIMHQDWLNGKEFKCRVNSAAFPAPIEKTISKTKGRPKAPQVYTIPPPKEQMAKDKVSLTCMITDFFPEDITVEWQWNGQPAENYKNTQPIMDTDGSYFVYSKLNVQKSNWEAGNTFTCSVLHEGLHNHHTEKSLSHSPGK light: not shown | 10.1 | 3.8 | 38.8 |
| H237-MB313/MRAL-k0 (antibody, mouse IgG1, kappa, copies: 2 + 2) heavy: QVQLQESGPGLVKPSETLSLTCAVSGHSISHDHAWSWVRQPPGEGLEWIGFISYSGITNYNPSLQGRVTISRDNSKNTLYLQMNSLRAEDTAVYYCARSLARTTAMDYWGEGTLVTVSSAKTTPPSVYPLAPGSAAQTNSMVTLGCLVKGYFPEPVTVTWNSGSLSSGVHTFPAVLQSDLYTLSSSVTVPSSTWPSETVTCNVAHPASSTKVDKKIVPRDCGCKPCICTVEEVEDVFIFPPKPKDVLTITLTPKVTCVVVDISKDDPEVQFSWFVDDVEVHTAQTQPREEQFNSTFRSVSELPIMHQDWLNGKEFKCRVNSAAFPAPIEKTISKTKGRPKAPQVYTIPPPKEQMAKDKVSLTCMITDFFPEDITVEWQWNGQPAENYKNTQPIMDTDGSYFVYSKLNVQKSNWEAGNTFTCSVLHEGLHNHHTEKSLSHSPGK light: not shown | 10.1 | 4 | 40.1 |
| H237-MB318/MRAL-k0 (antibody, mouse IgG1, kappa, copies: 2 + 2) heavy: QVQLQESGPGLVKPSETLSLTCAVSGHSISHDHAWSWVRQPPGEGLEWIGFISYSGITNYNPSLQGRVTISRDNSKNTLYLQMNSLRAEDTAVYYCARSLARTTAMDYWGEGTLVTVSSAKTTPPSVYPLAPGSAAQTNSMVTLGCLVKGYFPEPVTVTWNSGSLSSGVHTFPAVLQSDLYTLSSSVTVPSSTWPSETVTCNVAHPASSTKVDKKIVPRDCGCKPCICEVEEVEDVFIFPPKPKDVLTITLTPKVTCVVVDISKDDPEVQFSWFVDDVEVHTAQTQPREEQFNSTFRSVSELPIMHQDWLNGKEFKCRVNSAAFPAPIEKTISKTKGRPKAPQVYTIPPPKEQMAKDKVSLTCMITDFFPEDITVEWQWNGQPAENYKNTQPIMDTDGSYFVYSKLNVQKSNWEAGNTFTCSVLHEGLHNHHTEKSLSHSPGK light: not shown | 10.5 | 3.9 | 40.5 |
| H237-MB319/MRAL-k0 (antibody, mouse IgG1, kappa, copies: 2 + 2) heavy: QVQLQESGPGLVKPSETLSLTCAVSGHSISHDHAWSWVRQPPGEGLEWIGFISYSGITNYNPSLQGRVTISRDNSKNTLYLQMNSLRAEDTAVYYCARSLARTTAMDYWGEGTLVTVSSAKTTPPSVYPLAPGSAAQTNSMVTLGCLVKGYFPEPVTVTWNSGSLSSGVHTFPAVLQSDLYTLSSSVTVPSSTWPSETVTCNVAHPASSTKVDKKIVPRDCGCKPCICEAEEVEDVFIFPPKPKDVLTITLTPKVTCVVVDISKDDPEVQFSWFVDDVEVHTAQTQPREEQFNSTFRSVSELPIMHQDWLNGKEFKCRVNSAAFPAPIEKTISKTKGRPKAPQVYTIPPPKEQMAKDKVSLTCMITDFFPEDITVEWQWNGQPAENYKNTQPIMDTDGSYFVYSKLNVQKSNWEAGNTFTCSVLHEGLHNHHTEKSLSHSPGK light: not shown | 14.1 | 3.6 | 50 |
| H237-MB322/MRAL-k0 (antibody, mouse IgG1, kappa, copies: 2 + 2) heavy: QVQLQESGPGLVKPSETLSLTCAVSGHSISHDHAWSWVRQPPGEGLEWIGFISYSGITNYNPSLQGRVTISRDNSKNTLYLQMNSLRAEDTAVYYCARSLARTTAMDYWGEGTLVTVSSAKTTPPSVYPLAPGSAAQTNSMVTLGCLVKGYFPEPVTVTWNSGSLSSGVHTFPAVLQSDLYTLSSSVTVPSSTWPSETVTCNVAHPASSTKVDKKIVPRDCGCKPCICEDEEVEDVFIFPPKPKDVLTITLTPKVTCVVVDISKDDPEVQFSWFVDDVEVHTAQTQPREEQFNSTFRSVSELPIMHQDWLNGKEFKCRVNSAAFPAPIEKTISKTKGRPKAPQVYTIPPPKEQMAKDKVSLTCMITDFFPEDITVEWQWNGQPAENYKNTQPIMDTDGSYFVYSKLNVQKSNWEAGNTFTCSVLHEGLHNHHTEKSLSHSPGK light: not shown | 7.3 | 1.3 | 9.2 |
| H237-MB337/MRAL-k0 (antibody, mouse IgG1, kappa, copies: 2 + 2) heavy: QVQLQESGPGLVKPSETLSLTCAVSGHSISHDHAWSWVRQPPGEGLEWIGFISYSGITNYNPSLQGRVTISRDNSKNTLYLQMNSLRAEDTAVYYCARSLARTTAMDYWGEGTLVTVSSAKTTPPSVYPLAPGSAAQTNSMVTLGCLVKGYFPEPVTVTWNSGSLSSGVHTFPAVLQSDLYTLSSSVTVPSSTWPSETVTCNVAHPASSTKVDKKIVPRDCGCKPCICEAPEVEDVFIFPPKPKDVLTITLTPKVTCVVVDISKDDPEVQFSWFVDDVEVHTAQTQPREEQFNSTFRSVSELPIMHQDWLNGKEFKCRVNSAAFPAPIEKTISKTKGRPKAPQVYTIPPPKEQMAKDKVSLTCMITDFFPEDITVEWQWNGQPAENYKNTQPIMDTDGSYFVYSKLNVQKSNWEAGNTFTCSVLHEGLHNHHTEKSLSHSPGK light: not shown | 16 | 4.6 | 73.4 |
| H237-MB338/MRAL-k0 (antibody, mouse IgG1, kappa, copies: 2 + 2) heavy: QVQLQESGPGLVKPSETLSLTCAVSGHSISHDHAWSWVRQPPGEGLEWIGFISYSGITNYNPSLQGRVTISRDNSKNTLYLQMNSLRAEDTAVYYCARSLARTTAMDYWGEGTLVTVSSAKTTPPSVYPLAPGSAAQTNSMVTLGCLVKGYFPEPVTVTWNSGSLSSGVHTFPAVLQSDLYTLSSSVTVPSSTWPSETVTCNVAHPASSTKVDKKIVPRDCGCKPCICEDPEVEDVFIFPPKPKDVLTITLTPKVTCVVVDISKDDPEVQFSWFVDDVEVHTAQTQPREEQFNSTFRSVSELPIMHQDWLNGKEFKCRVNSAAFPAPIEKTISKTKGRPKAPQVYTIPPPKEQMAKDKVSLTCMITDFFPEDITVEWQWNGQPAENYKNTQPIMDTDGSYFVYSKLNVQKSNWEAGNTFTCSVLHEGLHNHHTEKSLSHSPGK light: not shown | 16.5 | 2.6 | 42.2 |
| H237-MB339/MRAL-k0 (antibody, mouse IgG1, kappa, copies: 2 + 2) heavy: QVQLQESGPGLVKPSETLSLTCAVSGHSISHDHAWSWVRQPPGEGLEWIGFISYSGITNYNPSLQGRVTISRDNSKNTLYLQMNSLRAEDTAVYYCARSLARTTAMDYWGEGTLVTVSSAKTTPPSVYPLAPGSAAQTNSMVTLGCLVKGYFPEPVTVTWNSGSLSSGVHTFPAVLQSDLYTLSSSVTVPSSTWPSETVTCNVAHPASSTKVDKKIVPRDCGCKPCICEVWEVEDVFIFPPKPKDVLTITLTPKVTCVVVDISKDDPEVQFSWFVDDVEVHTAQTQPREEQFNSTFRSVSELPIMHQDWLNGKEFKCRVNSAAFPAPIEKTISKTKGRPKAPQVYTIPPPKEQMAKDKVSLTCMITDFFPEDITVEWQWNGQPAENYKNTQPIMDTDGSYFVYSKLNVQKSNWEAGNTFTCSVLHEGLHNHHTEKSLSHSPGK light: not shown | 17 | 11.6 | 197 |
